Experimental data as given in US20210054076A1 (Chugai, published 2021).
Changes are numbered by the printed parent chain. One block for each molecule: values may come before it.

Key:
hCLDN6(Q156L) = biological target: T1, hCLDN6(Q156L) (human, UniProt P56747 1-220); test: FACS on Ba/F3 transfectant, antibody 20 micro g/ml, FITC anti-human IgG
T1 construct: Stably expressed on Ba/F3 cells; also called human CLDN6 mutant; BaF3_hCLDN6(Q156L)
T1 chain: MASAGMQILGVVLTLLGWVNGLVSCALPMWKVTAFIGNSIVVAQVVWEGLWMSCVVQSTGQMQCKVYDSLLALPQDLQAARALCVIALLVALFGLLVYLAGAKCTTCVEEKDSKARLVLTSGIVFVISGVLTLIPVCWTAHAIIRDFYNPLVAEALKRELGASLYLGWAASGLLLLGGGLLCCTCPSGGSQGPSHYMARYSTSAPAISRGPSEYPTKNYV
Protocol: (§1) To evaluate the binding activity and specificity of the generated CLDN6-TRABs against CLDN6 and other Claudin family antigens, FACS analysis was conducted as follows. Ba/F3 transfectants stably express a kind of protein selected from human CLDN3 (hCLDN3), human CLDN4 (hCLDN4), human CLDN6 (hCLDN6), human CLDN9 (hCLDN9), mouse CLDN3 (mCLDN3), mouse CLDN4 (mCLDN4) and mouse CLDN6 (mCLDN6), were generated using similar method described in WO2008/087978, and named BaF3_hCLDN3, BaF3_hCLDN4, BaF3_hCLDN6, BaF3_hCLDN9, BaF3 mCLDN3, BaF3 mCLDN4, BaF3 mCLDN6, respectively. Each of the CLDN6-TRABs (CH01/CD3, CH02/CD3, CH03/CD3, CH04/CD3) was incubated with the Ba/F3 transfectants at an antibody concentration of 20 micro g/ml in FACS buffer (0.5% BSA containing autoMACS Rinsing Solution, Miltenyl Biotec). Binding activities of each CLDN6-TRAB to the Claudin family proteins (hCLDN3, hCLDN4, hCLDN6, hCLDN9, mCLDN3, mCLDN4, mCLDN6) were examined by incubation of FITC-conjugated goat anti human IgG (BeckmanCoulter), represented as Geo-mean value. Sample processing was conducted on FACSVerse (BD).
(§2) Claudin family proteins have two extracellular domains. The sequence of the first extracellular domain in human CLDN9 is almost the same compared with the first extracellular domain of human CLDN6. For the second extracellular domain of human CLDN9, there are only two amino acids different from the ones at their corresponding positions in human CLDN6 (FIG. 2). The glutamine at position 156 of human Claudin 6 (position 156 in the sequence shown in SEQ ID NO: 44 or 45) was substituted to leucine to make a human CLDN6 mutant comprising the same amino acid as human Claudin 9 at position 156. This human CLDN6 mutant was named as hCLDN6(Q156L) (SEQ ID NO: 53). Ba/F3 transfectant stably express hCLDN6(Q156L) was generated using similar method described in WO2008/087978. The established Ba/F3 transfectant was named BaF3_hCLDN6(Q156L). Binding activity of the generated CLDN6-TRABs against BaF3_hCLDN6(Q156L) was measured using the above mentioned FACS method and the results are shown in FIG. 1 and Table 3.

mouse CLDN3 = biological target: T2, mouse CLDN3 (mouse, UniProt Q9Z0G9 1-219); test: as above
T2 construct: whole, on cells; also called mCLDN3; BaF3_mCLDN3
T2 sequence (looked up): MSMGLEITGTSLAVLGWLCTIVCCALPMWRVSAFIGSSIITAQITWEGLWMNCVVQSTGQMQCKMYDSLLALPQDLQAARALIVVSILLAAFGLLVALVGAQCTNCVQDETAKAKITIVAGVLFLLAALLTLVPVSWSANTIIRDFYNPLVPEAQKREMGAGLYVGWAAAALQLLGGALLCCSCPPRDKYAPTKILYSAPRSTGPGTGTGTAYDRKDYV
Protocol: as §1, §2

mouse CLDN4 = biological target: T3, mouse CLDN4 (mouse, UniProt O35054 1-210); test: as above
T3 construct: whole, on cells; also called mCLDN4; BaF3_mCLDN4
T3 sequence (looked up): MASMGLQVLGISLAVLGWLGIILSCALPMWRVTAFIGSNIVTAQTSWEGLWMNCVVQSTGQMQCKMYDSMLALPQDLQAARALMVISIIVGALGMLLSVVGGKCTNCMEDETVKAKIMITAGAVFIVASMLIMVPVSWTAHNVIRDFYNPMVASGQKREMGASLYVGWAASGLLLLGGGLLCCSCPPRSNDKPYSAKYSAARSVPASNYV
Protocol: as §1, §2

mouse CLDN6 = biological target: T4, mouse CLDN6 (mouse, UniProt Q9Z262 1-219); test: as above
T4 construct: whole, on cells; also called mCLDN6; BaF3_mCLDN6
T4 sequence (looked up): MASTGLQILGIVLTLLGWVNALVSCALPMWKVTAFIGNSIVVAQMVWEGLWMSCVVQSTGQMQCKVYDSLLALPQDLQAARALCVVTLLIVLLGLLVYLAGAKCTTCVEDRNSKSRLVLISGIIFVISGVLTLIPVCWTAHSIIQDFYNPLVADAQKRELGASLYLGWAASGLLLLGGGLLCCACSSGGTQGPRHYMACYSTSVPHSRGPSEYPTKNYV
Protocol: as §1, §2

human CLDN3 = biological target: T5, human CLDN3 (human, UniProt O15551 1-220); test: as above
T5 construct: whole, on cells; also called hCLDN3; BaF3_hCLDN3
T5 sequence (looked up): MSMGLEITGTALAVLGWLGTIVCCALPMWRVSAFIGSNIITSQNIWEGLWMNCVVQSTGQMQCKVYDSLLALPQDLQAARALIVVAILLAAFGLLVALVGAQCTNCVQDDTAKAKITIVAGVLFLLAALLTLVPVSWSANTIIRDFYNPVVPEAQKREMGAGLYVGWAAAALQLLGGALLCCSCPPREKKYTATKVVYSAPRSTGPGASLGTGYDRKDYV
Protocol: as §1, §2

human CLDN4 = biological target: T6, human CLDN4 (human, UniProt O14493 1-209); test: as above
T6 construct: whole, on cells; also called hCLDN4; BaF3_hCLDN4
T6 sequence (looked up): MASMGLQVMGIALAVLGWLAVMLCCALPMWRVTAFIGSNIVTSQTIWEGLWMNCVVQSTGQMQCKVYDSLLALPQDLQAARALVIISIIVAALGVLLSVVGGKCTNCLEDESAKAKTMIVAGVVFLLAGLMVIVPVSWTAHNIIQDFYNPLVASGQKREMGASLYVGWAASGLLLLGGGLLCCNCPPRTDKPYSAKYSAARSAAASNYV
Protocol: as §1, §2

human CLDN6 [1] = biological target: T7, human CLDN6 (human, UniProt P56747 1-220); test: as above
T7 sequence: T1 chain with L156Q
Protocol: as §1, §2

human CLDN9 = biological target: T8, human CLDN9 (human, UniProt O95484 1-217); test: as above
T8 construct: whole, on cells; also called hCLDN9; BaF3_hCLDN9
T8 sequence (looked up): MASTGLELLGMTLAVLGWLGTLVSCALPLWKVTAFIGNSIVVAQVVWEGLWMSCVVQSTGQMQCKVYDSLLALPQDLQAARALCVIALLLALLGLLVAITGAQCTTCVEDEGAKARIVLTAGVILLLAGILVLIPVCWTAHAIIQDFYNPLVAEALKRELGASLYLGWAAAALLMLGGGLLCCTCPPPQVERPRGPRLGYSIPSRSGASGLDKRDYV
Protocol: as §1, §2

human CLDN6 [2] = biological target: T7, human CLDN6; test: cell-based or functional assay
human CLDN6 [3] = biological target: T7, human CLDN6; test: cell-based or functional assay; remark: listed apart in the source

- Geo-mean value of FACS (hCLDN6(Q156L)): 62
- Geo-mean value of FACS (mouse CLDN3): 29
- Geo-mean value of FACS (mouse CLDN4): 31
- Geo-mean value of FACS (mouse CLDN6): 43
- Geo-mean value of FACS (human CLDN3): 78
- Geo-mean value of FACS (human CLDN4): 42
- Geo-mean value of FACS (human CLDN6 [1]): 29
- Geo-mean value of FACS (human CLDN9): 96
Molecule: isotype control (antibody)

- EC50 (read off the curve), Jurkat/NFAT-RE luciferase reporter, target cells ABC-1 (human CLDN6 [2]): ~0.05 nM
- EC50 (read off the curve), Jurkat/NFAT-RE luciferase reporter, target cells PA-1 (human CLDN6 [3]): ~0.03 nM
- Geo-mean value of FACS (hCLDN6(Q156L)): 69
- Geo-mean value of FACS (mouse CLDN3): 27
- Geo-mean value of FACS (mouse CLDN4): 22
- Geo-mean value of FACS (mouse CLDN6): 1760
- Geo-mean value of FACS (human CLDN3): 37
- Geo-mean value of FACS (human CLDN4): 35
- Geo-mean value of FACS (human CLDN6 [1]): 4740
- Geo-mean value of FACS (human CLDN9): 84
B1: CH02/CD3 (bispecific antibody, human IgG1, kappa, N297A)
heavy 1: EVQVEQSGLELVKPGASVKISCKTSGYTFTEYTMHWVKQSHGKSLEWIGGINPNNGNTRYNQKFKDKATLTVDKSSRTAYMELHTLTSEDSAVYYCARCGDYDLFFFFAYWGQGTLVTVSAASTKGPSVFPLAPSSKSTSGGTAALGCLVKDYFPEPVTVSWNSGALTSGVHTFPAVLQSSGLYSLSSVVTVPSSSLGTQTYICNVNHKPSNTKVDKKVEPKSCDKTHTCPPCPAPELRGGPKVFLFPPKPKDTLMISRTPEVTCVVVDVSHEDPEVKFNWYVDGVEVHNAKTKPREEQYASTYRVVSVLTVLHQDWLNGKEYKCKVSNKALPAPIEKTISKAKGQPREPQVYTLPPSREEMTKNQVSLTCLVKGFYPSDIAVEWESNGQPENNYKTTPPYLDSDGSFFLYSKLTVDKSRWQQGNVFSCSVMHEALHNHYTQESLSLSP
light 1: DIVMTQFQKFMSTSVGDRVSVTCKASQNVGTNVAWYQQKPGQSPEALISSASSRFSGVPDRFTGSGSGTDFTLTITNVQSEDLADYFCQQYNSFPFTFGSGTELEIKRTVAAPSVFIFPPSDEQLKSGTASVVCLLNNFYPREAKVQWKVDNALQSGNSQESVTEQDSKDSTYSLSSTLTLSKADYEKHKVYACEVTHQGLSSPVTKSFNRGEC
heavy 2: QVQLVESGGGVVQPGGSLRLSCAASGFTFSNAWMHWVRQAPGKGLEWVAQIKDKSQNYATYVAESVKGRFTISRADSKNSIYLQMNSLKTEDTAVYYCRYVHYAAGYGVDIWGQGTTVTVSSASTKGPSVFPLAPSSKSTSGGTAALGCLVKDYFPEPVTVSWNSGALTSGVHTFPAVLQSSGLYSLSSVVTVPSSSLGTQTYICNVNHKPSNTKVDKKVEPKSCDKTHTCPPCPAPELRGGPKVFLFPPKPKDTLMISRTPEVTCVVVDVSHEDPEVKFNWYVDGVEVHNAKTKPREEQYASTYRVVSVLTVLHQDWLNGKEYKCKVSNKALPAPIEKTISKAKGQPREPQVYTLPPSRKEMTKNQVSLTCLVKGFYPSDIAVEWESNGQPENNYKTTPPYLDSDGSFFLYSKLTVDKSRWQQGNVFSCSVMHEALHNHYTQKSLSLSP
light 2: DIVMTQSPLSLPVTPGEPASISCRSSQPLVHSNRNTYLHWYQQKPGQAPRLLIYKVSNRFSGVPDRFSGSGSGTDFTLKISRVEAEDVGVYYCGQGTQVPYTFGQGTKLEIKRTVAAPSVFIFPPSDEQLKSGTASVVCLLNNFYPREAKVQWKVDNALQSGNSQESVTEQDSKDSTYSLSSTLTLSKADYEKHKVYACEVTHQGLSSPVTKSFNRGEC
notes: Made by Fab arm exchange of the bivalent anti-CLDN6 antibody CH02 with the bivalent anti-CD3 antibody CD3-1; human IgG1 constant region; One anti-CLDN6 arm and one anti-CD3 arm; also called CLDN6-TRAB; CLDN6-targeted T-cell redirecting bispecific antibody

- EC50 (read off the curve), Jurkat/NFAT-RE luciferase reporter, target cells ABC-1 (human CLDN6 [2]): ~0.04 nM
- EC50 (read off the curve), Jurkat/NFAT-RE luciferase reporter, target cells PA-1 (human CLDN6 [3]): ~0.02 nM
- Geo-mean value of FACS (hCLDN6(Q156L)): 98
- Geo-mean value of FACS (mouse CLDN3): 26
- Geo-mean value of FACS (mouse CLDN4): 22
- Geo-mean value of FACS (mouse CLDN6): 559
- Geo-mean value of FACS (human CLDN3): 37
- Geo-mean value of FACS (human CLDN4): 35
- Geo-mean value of FACS (human CLDN6 [1]): 7700
- Geo-mean value of FACS (human CLDN9): 184
B2: CH03/CD3 (bispecific antibody, human IgG1, kappa, N297A)
heavy 1: B1 heavy 1 with L9P, D66G, R77S, H84R, Y102F
light 1: B1 light 1 with F7S, T31S, A46G, D85E, F94Y
heavy 2: B1 heavy 2
light 2: B1 light 2
notes: Made by Fab arm exchange of the bivalent anti-CLDN6 antibody CH03 with the bivalent anti-CD3 antibody CD3-1; human IgG1 constant region; One anti-CLDN6 arm and one anti-CD3 arm; also called CLDN6-TRAB; CLDN6-targeted T-cell redirecting bispecific antibody
